# According to the nanobody polyreactivity screen of Harvey et al. (2022):
# Assay: yeast display, Sf9 membrane polyspecificity reagent, FACS + sequencing; frameworks hold sequencing errors
# Outline: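 Nanobodies came from a synthetic yeast display library in Saccharomyces cerevisiae BJ5465, induced with galactose for 36–48 hours and stained for 1 hour at 4 °C with 10% biotinylated, detergent-solubilized Sf9 membrane reagent. Cells were enriched on streptavidin microbeads and then FACS-sorted, with low and high (top ~1%) gates set on anti-HA fluorescence for expression and streptavidin fluorescence for reagent binding. Each polyreactivity label reflects the gate a clone came from. Genes were amplified by colony PCR, sequenced by MiSeq 2 × 250 and filtered by CDR length.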
row,Sequence,polyreactivity (PSR sort gate)
1,QFQIVESGGGLVQAGGSLRLSCDASGSIFTWYAMGWYRQAPGKERELVAAITRGGSTYADSVKGRFTISRDNAKNSVYLQMNSLKPEDTAVYYCNAVYGVYDFNYWGQGTQVTVSP,low polyreactivity
2,QFQLEESGGGLVQAGGSLRLSCAASGSTFSSYVMGWYRQAPGKERELVAAISSIGGSTYYADSVKGRFTISRDNAKNTVYLQMNSLKPEDTAVYYCAAEPPGSTYEGGYLGQGTQVTVSS,low polyreactivity
3,QFQLVDSGGGLVHAGGSRSLSCADSGLIFHNNAMGWYRQAPGKEREFVARITRSGGTTYYADSVKGRFTISRDNAKNTVYLQMNSLKPEDTAVYYCAAEQSVSFLVFTGFKFDYWGQGTHVTVSS,low polyreactivity
4,QFQLVDSGGGLVQAGGSLRLSCAASGRTFWFYGMGWYRQAPGKEREFVARISGSGGSKYYADSVKGRFTITRDNAKNTVYFQMNSLKPEDTAVYYCAKDNRYPYPSGLDYWGQGTQVTVSS,high polyreactivity
5,QFQLVDSGRGLVQAGGSLRLSCAASGRTFPHYAMGWYRQAPGKERELVAAISSRGGSTYYADSVKGRFTISRDNVKNTVYLQMNSLKPEDTAVYYCAATVGLYRSREYGYWGQGTQVTVSS,low polyreactivity
6,QFQLVESGGGIVQAGGSLRIAVRPPDLPSTLNHLGWSRQAPGKERSVVAAITRGGSTNYADSVKGRFTISRDNAKNTVYLQMNSLKQEDTAVYYCAAPYAGWRDGGDYWGQGTQVTVSS,low polyreactivity
7,QFQLVESGGGLVPARGSLRLSCAASGLIFKRNAMGWYRQAPGKERELDASNSGRGGSTYYADSLTGRFTISRDNAKKTVYLQMNSLKPEDTAVYFCAADGPPLGRPSYRLFYGYDYWGQGSQVTVSS,high polyreactivity
8,QFQLVESGGGLVQAGASLRLSCASSLSTFDHNAMGSYRQAPGKESELVAAISSSGGRTYYADSVKGRFTISRDNAKNTVYLQMNSLKPEDTAVYYCAAVVRRAPEFDYSGQGTQVTVSS,high polyreactivity
9,QFQLVESGGGLVQAGGILRLSCAASGITFRIYAMGWYRQAPGKERELVAGISSSGSTNYADSVKGRFTISRESAKNTVYLQMNSLKPEDTAVYYCAADAFYKFDYWGQGTQVTESS,high polyreactivity
10,QFQLVESGGGLVQAGGSHRLSCAASGRIVDYYAMGWYRQAPGKERDLVAAISTSGGSTYYADSVKGRFTISRDNAKITVYLLMNSLKPEDTAVYYCGKDITVTYPVLDYDYWGQCTQVTVSS,low polyreactivity
11,QFQLVESGGGLVQAGGSLPLSCAASGSIFLWTAMGWYRQAPGKERELVAAITLRGGSTYYADSLKGRFTISRDNAKYAVYLQLNSLKPEDTAVFYCAADVFLLYDYWGQGTQVTVSS,low polyreactivity
12,QFQLVESGGGLVQAGGSLRLICAASGIIFKLNAMGWYRQAPGIETELVAAITYRGGTTYYADSVKGRFTISRDNAKNTVYVQMNSLKPEDTAVYYCAVAVTSYSSKKLYYWGQGTQVTVSS,low polyreactivity
13,QFQLVESGGGLVQAGGSLRLSCAASARTFYRYAMGWYRQAPGKERELVASINRGGSTIYADSVKGRFSISRDNAKNTVYLHMNSLKPEDTAVFYCACYCYCYWGQGTQVTVSS,low polyreactivity
14,QFQLVESGGGLVQAGGSLRLSCAASGFIFSNYAMGWYRQAPGKERELVASISWGGGSTYYADSVKGRFTISRDNAKNTVYLQMNSLKPEDTAVYYCATVRSLYSYDYWGQGTQVTVSS,high polyreactivity
15,QFQLVESGGGLVQAGGSLRLSCAASGFTFVSNDMGWYRQAPGKVRELVAAISQGGGSTYYADSVKGRFTISRDNAKNTVYLQMNSLKPEDNAVYYCDAEDVYFGYDYSGQGTQVTVSS,low polyreactivity
16,QFQLVESGGGLVQAGGSLRLSCAASGFTITFYAKGWYRQAPGKERELVAAIRTSDGRTYYADSVKGRFTISRDNAKNTVYLQMNSLKPEDTAVYYCAAQVYRPRARYYEYDYWGQGTQVTVSS,high polyreactivity
17,QFQLVESGGGLVQAGGSLRLSCAASGFTIYIYAKGWYRQAPGKERELVAAINFRGGSTYYADSVKGRFTISGDNAKKTVYLQLNSLKPEDTAVYYCAAVPRTYSGYYYWGQGTQVSVSS,high polyreactivity
